This test has as its target E.amu APN ectodomain, His-tagged (for cryo-EM) (Erinaceus amurensis). Kind of test: cryo-EM structure.

With “EriCoV RU15-1 RBD, His-tagged (for cryo-EM, BLI and SPR) (domain or fragment)”, the share of the total particles that are the complex came out at 5%.
